Read-outs that look alike come from different tables or passages of the source.
Assays:
[1] = target: Full length UFC1, residues 1–167 (UniProt Q9Y3C8); assay: ITC; VP-ITC, 25 °C; UBA5 peptides (~400 µM) titrated into 20–25 µM binding partner; 25 mM HEPES pH 7.5, 100 mM NaCl; one-site model; a single profile for each interaction
[2] = target: Full length UFC1, residues 1–167 (UniProt Q9Y3C8); assay: as above; remark: listed apart in the source

Kd [1]: > 11 µM
Ka [2]: 30000 M⁻¹
Kd [2]: 10 µM
dH [2]: -4.99 kcal/mol
stoichiometry N [2]: 0.95
Binder: GAMEDSGESLEDLMAKMKNM [UBA5 C-terminal region R3, residues 388–404]
